# Results reported in patent US20190359693A1.
# How the values were obtained:
# [1] = molecular target: hemagglutinin (HA) of influenza B/Florida/04/06 (Yamagata) (influenza B virus); test: cell-based or functional assay
# [2] = molecular target: hemagglutinin (HA) of influenza B/Brisbane/60/08 (Victoria) (influenza B virus); test: cell-based or functional assay
# [3] = molecular target: hemagglutinin (HA) of influenza A/Wisconsin/67/05 (H3N2) (influenza A virus); test: cell-based or functional assay
# [4] = molecular target: HA of B/Florida/04/2006 (Yamagata) (influenza B virus); test: AlphaLISA competition vs SD1086
# [5] = molecular target: HA of B/Brisbane/60/2008 (Victoria) (influenza B virus); test: AlphaLISA competition vs SD1086
# [6] = molecular target: HA of B/Florida/04/2006 (Yamagata) (influenza B virus); test: AlphaLISA competition vs SD1085
# [7] = molecular target: HA of B/Brisbane/60/2008 (Victoria) (influenza B virus); test: AlphaLISA competition vs SD1085
# [8] = molecular target: HA of B/Florida/04/2006 (Yamagata) (influenza B virus); test: cell-based or functional assay
# [9] = molecular target: HA of H5N1 A/Vietnam/1194/04 (influenza A virus); test: cell-based or functional assay
# [10] = molecular target: hemagglutinin (HA) of influenza virus H1N1 A/California/07/09 (influenza A virus); test: cell-based or functional assay
# [11] = molecular target: hemagglutinin (HA) of influenza A/Brisbane/10/07 (H3N2) (influenza A virus A/Brisbane/10/07 (H3N2)); test: cell-based or functional assay
# [12] = molecular target: hemagglutinin (HA) of influenza A/chicken/Germany/n/49 (H10N7) (influenza A virus A/chicken/Germany/n/49 (H10N7)); test: cell-based or functional assay
# [13] = molecular target: HA of H3N2 A/Wisconsin/67/2005 (influenza A virus); test: cell-based or functional assay
# [14] = molecular target: hemagglutinin (HA) of influenza virus H3N2 A/Wisconsin/67/05 (influenza A virus); test: cell-based or functional assay
# [15] = molecular target: hemagglutinin (HA) of influenza virus H1N1 A/Puerto Rico/8/34-MA (influenza A virus); test: cell-based or functional assay
# [16] = molecular target: hemagglutinin (HA) of influenza virus H5N1 A/Vietnam/1194/04 (influenza A virus); test: cell-based or functional assay
# [17] = molecular target: HA of H3N2 A/Brisbane/10/2007 (influenza A virus); test: cell-based or functional assay
# [18] = molecular target: HA of H1N1 A/Brisbane/59/07 (influenza A virus); test: cell-based or functional assay
# [19] = molecular target: hemagglutinin (HA) of influenza A/waterfowl/Hong Kong/MPA892/06 (H4) (influenza A virus A/waterfowl/Hong Kong/MPA892/06 (H4)); test: cell-based or functional assay
# [20] = molecular target: HA of H1N1 A/New Caledonia/20/1999 (influenza A virus); test: cell-based or functional assay
# [21] = molecular target: HA of H7N3 A/NIBRG/60 (A/mallard/NL/12/00) (influenza A virus); test: cell-based or functional assay
# [22] = molecular target: hemagglutinin (HA) of influenza A/New York/107/03 (PR8) (influenza A virus A/New York/107/03 (PR8)); test: cell-based or functional assay
# [23] = molecular target: HA of B/Brisbane/60/2008 (Victoria) (influenza B virus); test: cell-based or functional assay
# [24] = molecular target: HA of H3N2 A/Wisconsin/67/2005 (influenza A virus); test: AlphaLISA competition vs CR8057
# [25] = molecular target: HA of H3N2 A/Brisbane/10/2007 (influenza A virus); test: AlphaLISA competition vs CR8057
# [26] = molecular target: HA of H3N2 A/Brisbane/10/2007 (influenza A virus); test: AlphaLISA competition vs SD1036
# [27] = molecular target: HA of H3N2 A/Wisconsin/67/2005 (influenza A virus); test: AlphaLISA competition vs CR8020
# [28] = molecular target: HA of H3N2 A/Brisbane/10/2007 (influenza A virus); test: AlphaLISA competition vs CR8020
# [29] = molecular target: HA of H5N1 A/Vietnam/1203/2004 (influenza A virus); test: AlphaLISA competition vs CR9114
# [30] = molecular target: HA of H3N2 A/Wisconsin/67/2005 (influenza A virus); test: AlphaLISA competition vs CR9114
# [31] = molecular target: HA of H3N2 A/Brisbane/10/2007 (influenza A virus); test: AlphaLISA competition vs CR9114
# [32] = molecular target: HA of H1N1 A/New Caledonia/20/1999 (influenza A virus); test: AlphaLISA competition vs CR9114
# [33] = molecular target: HA of B/Brisbane/60/2008 (Victoria) (influenza B virus); test: AlphaLISA competition vs CR9114
# [34] = molecular target: HA of H3N2 A/Brisbane/10/2007 (influenza A virus); test: AlphaLISA competition vs 39.29
# [35] = molecular target: HA of B/Florida/04/2006 (Yamagata) (influenza B virus); test: AlphaLISA competition vs SD1084
# [36] = molecular target: HA of B/Brisbane/60/2008 (Victoria) (influenza B virus); test: AlphaLISA competition vs SD1084
# [37] = molecular target: HA of H3N2 A/Brisbane/10/2007 (influenza A virus); test: AlphaLISA competition vs SD1038
# [38] = molecular target: HA of B/Florida/04/2006 (Yamagata) (influenza B virus); test: AlphaLISA competition vs SD1087
# [39] = molecular target: HA of B/Brisbane/60/2008 (Victoria) (influenza B virus); test: AlphaLISA competition vs SD1087
# [40] = molecular target: HA of H7N9 A/Hangzhou/1/2013 (influenza A virus); test: BLI steady state
# [41] = molecular target: HA of H3N2 A/Wisconsin/67/2005 (influenza A virus); test: BLI steady state
# [42] = molecular target: HA of H3N2 A/Brisbane/10/2007 (influenza A virus); test: BLI steady state
# [43] = molecular target: HA of H1N1 A/Brisbane/59/07 (influenza A virus); test: BLI steady state
# [44] = molecular target: HA of H1N1 A/New Caledonia/20/1999 (influenza A virus); test: BLI steady state
# [45] = molecular target: HA of H7N3 A/NIBRG/60 (A/mallard/NL/12/00) (influenza A virus); test: BLI steady state
# [46] = molecular target: HA of B/Florida/04/2006 (Yamagata) (influenza B virus); test: AlphaLISA competition vs SD1083
# [47] = molecular target: HA of B/Brisbane/60/2008 (Victoria) (influenza B virus); test: AlphaLISA competition vs SD1083
# SD1036 (VHH), sequence (VHH): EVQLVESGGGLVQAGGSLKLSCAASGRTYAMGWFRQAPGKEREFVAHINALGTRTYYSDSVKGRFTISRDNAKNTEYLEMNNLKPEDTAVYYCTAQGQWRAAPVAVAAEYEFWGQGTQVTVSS
substance,measurement,setting,value
CR9114 (antibody),"ADCC induction (EC50 grade, FcγRIIIa reporter bioassay)",[1],< 0.1 µg/mL
same,"ADCC induction (EC50 grade, FcγRIIIa reporter bioassay)",[2],< 0.1 µg/mL
same,"ADCC induction (EC50 grade, FcγRIIIa reporter bioassay)",[3],< 0.1 µg/mL
CR9114-LALA (antibody),"ADCC induction (EC50 grade, FcγRIIIa reporter bioassay)",[1],> 0.5 µg/mL
same,"ADCC induction (EC50 grade, FcγRIIIa reporter bioassay)",[2],> 0.5 µg/mL
same,"ADCC induction (EC50 grade, FcγRIIIa reporter bioassay)",[3],> 0.5 µg/mL
SD1036 (VHH),pIC50,[4],< 7
same,pIC50,[5],< 7
same,pIC50,[6],< 7
same,pIC50,[7],< 7
same,VNA titer,[8],> 1000 nM
same,VNA titer,[9],> 1000 nM
same,neutralization titer,[10],< 1000 nM
same,VNA IC50,[11],59 nM
same,VNA IC50,[12],10 nM
same,VNA titer,[13],> 1000 nM
same,neutralization titer,[14],< 1000 nM
same,neutralization titer,[15],< 1000 nM
same,neutralization titer,[16],< 1000 nM
same,VNA titer,[17],86.7 nM
same,VNA titer,[18],> 1000 nM
same,VNA IC50,[19],44 nM
same,VNA titer,[20],> 1000 nM
same,VNA titer,[21],10.9 nM
same,VNA IC50,[22],11 nM
same,VNA titer,[23],> 1000 nM
same,pIC50,[24],< 7
same,pIC50,[25],< 7
same,pIC50,[26],9.1
same,pIC50,[27],7.2
same,pIC50,[28],9.2
same,pIC50,[29],< 7
same,pIC50,[30],7.8
same,pIC50,[31],9.4
same,pIC50,[32],< 7
same,pIC50,[33],< 7
same,pIC50,[34],9.2
same,pIC50,[35],< 7
same,pIC50,[36],< 7
same,pIC50,[37],9.3
same,pIC50,[38],< 7
same,pIC50,[39],< 7
same,Kd,[40],3 nM
same,Kd,[41],122 nM
same,Kd,[42],10 nM
same,Kd,[43],290 nM
same,Kd,[44],230 nM
same,Kd,[45],2 nM
same,pIC50,[46],< 7
same,pIC50,[47],< 7
